Where two headings read alike, the source gives them in different places.
What was measured:
[1] = target: T1, HMCES SRAP domain (SRAPd) WT (Homo sapiens, UniProt Q96FZ2 2-270); test: crystal structure
T1 sequence: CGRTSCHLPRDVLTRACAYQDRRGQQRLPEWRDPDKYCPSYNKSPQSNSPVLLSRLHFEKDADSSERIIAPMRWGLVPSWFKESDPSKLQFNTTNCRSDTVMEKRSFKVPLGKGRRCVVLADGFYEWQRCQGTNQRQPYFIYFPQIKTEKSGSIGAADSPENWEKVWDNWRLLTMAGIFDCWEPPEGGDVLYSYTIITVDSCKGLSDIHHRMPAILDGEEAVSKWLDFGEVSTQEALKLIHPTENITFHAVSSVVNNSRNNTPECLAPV

[2] = target: T1, HMCES SRAP domain (SRAPd) WT; test: crystal structure; remark: listed apart in the source
[3] = target: T1, HMCES SRAP domain (SRAPd) WT; test: fluorescence polarization

B1: DNA_6nt (3' overhang) (dsDNA)
DNA 1: CCAGACGTTGTT
DNA 2: GTCTTG
[1]
  binding result: binds

B2: DNA_3nt (3' overhang) (dsDNA)
DNA 1: CCAGACGTT
DNA 2: GTCTTG
[2]
  binding result: binds

B3: 3-nt gap DNA (dsDNA)
DNA 1: TCTTCTGGTCCGGATGGTAGTTAAGTGTTGAC
DNA 2: GGACCAGAAGA
DNA 3: GTCAACACTTAACTACCA
[3]
  binding signal: ~7 fold higher affinity than dsDNA of same sequence

Reference: paper PMC6609482
